Blank lines part the entries; values can stand above or below the molecule they belong to.
Legend:
[1] = target: anti-Myc mAb-HRP conjugate (Invitrogen); experiment: competition ELISA: anti-Myc mAb-HRP on coated Myc peptide, 10x diluted c-ART-b sample as competitor
[2] = target: T1, human melanocortin-4 receptor (human, UniProt P32245 1-332); experiment: displacement of 0.2 nM 125I-NDP-α-MSH from membranes of cells stably expressing human MC4R, filtration
T1 construct: whole, on cells; Membrane preparations of stably expressing cells; also called hMC4R; MC4R

[3] = target: T2, human melanocortin-3 receptor (human, UniProt P41968 1-323); experiment: displacement of 0.2 nM 125I-NDP-α-MSH from membranes of cells stably expressing human MC3R, filtration
T2 construct: whole, on cells; Membrane preparations of stably expressing cells; also called hMC3R; MC3R
T2 sequence (P41968 whole entry): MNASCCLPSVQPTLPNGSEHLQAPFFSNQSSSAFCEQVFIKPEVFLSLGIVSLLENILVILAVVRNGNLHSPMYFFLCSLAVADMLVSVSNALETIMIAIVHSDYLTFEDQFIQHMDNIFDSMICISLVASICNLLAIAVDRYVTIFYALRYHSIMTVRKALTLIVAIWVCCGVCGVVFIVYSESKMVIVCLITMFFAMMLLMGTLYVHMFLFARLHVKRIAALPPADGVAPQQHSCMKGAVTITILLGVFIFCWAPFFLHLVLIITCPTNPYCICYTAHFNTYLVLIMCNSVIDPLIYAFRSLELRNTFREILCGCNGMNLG

T1 sequence (P32245 whole entry): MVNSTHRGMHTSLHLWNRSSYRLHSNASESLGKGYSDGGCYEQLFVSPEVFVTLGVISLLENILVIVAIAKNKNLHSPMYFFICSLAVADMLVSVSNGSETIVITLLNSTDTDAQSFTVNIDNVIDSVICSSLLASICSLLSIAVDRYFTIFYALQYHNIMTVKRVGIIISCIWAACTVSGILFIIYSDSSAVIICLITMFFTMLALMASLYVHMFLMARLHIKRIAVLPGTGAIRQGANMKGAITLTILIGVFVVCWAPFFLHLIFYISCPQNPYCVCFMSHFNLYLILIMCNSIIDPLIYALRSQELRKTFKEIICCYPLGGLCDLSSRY

- absorbance [1]: 0.079
- IC50 [2]: 1.4 nM
- IC50 [3]: 1.9 nM
Molecule: c-ART-b (from UniProt O00253 1-26; O00253 76-132) (ligand)

- IC50 [2]: 0.5 nM
- IC50 [3]: 1 nM
B1: full-length human ART protein (ligand, UniProt O00253 21-132, looked up, not shown: small tags and cut ends)
chain: AQMGLAPMEGIRRPDQALLPELPGLGLRAPLKKTTAEQAEEDLLQEAQALAEVLDLQDREPRSSRRCVRLHESCLGQQVPCCDPCATCYCRFFNAFCYCRKLGTAMNPCSRT
notes: range 1-132; Recombinant ART as described by Fong et al. 1997 (ART cDNA in pcDNA3.1-Myc-His-A); also called full length ART; full-length ART protein
